{"source": "patent US20210063414A1", "about": "“METHODS FOR PREVENTING AND/OR TREATING BONE LOSS CONDITIONS BY MODULATING IRISIN” (Dana-Farber Cancer Institute, Inc., priority 2018, published 2021)", "key": {"[1]": {"biological_target": "T1, MLO-Y4 cell surface proteins (Mus musculus, UniProt P16460)", "T1 construct": "endogenous in cells; host or cells: MLO-Y4", "T1 sequence (P16460 1-412)": "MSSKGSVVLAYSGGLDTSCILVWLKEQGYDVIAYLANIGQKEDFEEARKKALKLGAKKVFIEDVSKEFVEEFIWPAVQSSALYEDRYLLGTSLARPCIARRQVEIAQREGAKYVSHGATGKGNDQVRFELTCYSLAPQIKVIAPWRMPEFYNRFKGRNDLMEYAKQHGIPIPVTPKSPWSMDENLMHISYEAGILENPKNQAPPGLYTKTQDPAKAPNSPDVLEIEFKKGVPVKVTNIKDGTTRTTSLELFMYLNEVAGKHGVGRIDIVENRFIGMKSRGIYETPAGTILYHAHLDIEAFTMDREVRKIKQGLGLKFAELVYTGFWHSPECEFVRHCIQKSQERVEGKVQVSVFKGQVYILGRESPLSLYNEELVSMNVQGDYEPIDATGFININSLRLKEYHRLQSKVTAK", "assay": "Crosslinking/co-immunoprecipitation/mass spectrometry (TMT quantitative proteomics) to identify irisin receptors", "type": "binding", "conditions": "co-precipitated protein Ass1 (ASSY_MOUSE)", "method_in_brief": "(§1)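 Mouse MLO-Y4 cells were switched to serum-free FreeStyle medium for 4 h, chilled, then exposed to 10 nM His-tagged irisin (or adipsin as control) for 20 min. Cells were crosslinked with 1.5 mM DTSSP (30 min, ice), and bound proteins were pulled down on Ni-NTA and eluted with 250 mM imidazole. Eluates were separated by SDS-PAGE, trypsin-digested in gel, TMT 6-plex labelled and quantified by MS3-based LC-MS/MS on an Orbitrap Fusion Lumos.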"}, "[2]": {"biological_target": "T2, MLO-Y4 cell surface proteins (Mus musculus, UniProt Q8JZN5)", "T2 construct": "endogenous in cells; host or cells: MLO-Y4", "T2 sequence (Q8JZN5 42-625)": "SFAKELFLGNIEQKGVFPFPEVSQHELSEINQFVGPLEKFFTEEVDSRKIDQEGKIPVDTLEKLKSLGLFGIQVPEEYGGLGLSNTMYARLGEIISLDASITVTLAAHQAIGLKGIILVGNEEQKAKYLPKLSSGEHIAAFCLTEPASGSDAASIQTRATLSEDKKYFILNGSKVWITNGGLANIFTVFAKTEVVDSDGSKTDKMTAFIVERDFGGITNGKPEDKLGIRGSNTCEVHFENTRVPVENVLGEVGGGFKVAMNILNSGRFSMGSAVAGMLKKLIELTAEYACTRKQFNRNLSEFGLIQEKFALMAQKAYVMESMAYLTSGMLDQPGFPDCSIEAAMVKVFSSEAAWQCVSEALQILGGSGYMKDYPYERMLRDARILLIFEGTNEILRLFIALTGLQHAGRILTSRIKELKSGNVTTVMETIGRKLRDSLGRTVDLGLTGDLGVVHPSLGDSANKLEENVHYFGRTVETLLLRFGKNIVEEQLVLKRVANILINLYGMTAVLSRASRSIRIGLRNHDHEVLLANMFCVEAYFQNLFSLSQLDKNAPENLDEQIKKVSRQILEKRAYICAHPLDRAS", "assay": "Crosslinking/co-immunoprecipitation/mass spectrometry (TMT quantitative proteomics) to identify irisin receptors", "type": "binding", "conditions": "co-precipitated protein Acad9 (ACAD9_MOUSE)", "method_in_brief": "as §1"}}}
{"substance": "adipsin", "values": [{"measurement": "TMT signal-to-noise ratio", "setting": "[1]", "value": 285.885}, {"measurement": "TMT signal-to-noise ratio", "setting": "[2]", "value": 127.125}]}
